The source of these data is publication PMC5289644.

Assay [1] concerns the target HA-tagged intracellular part of Smβ-Int1 (Smβ-Int1 C-term) (S. mansoni).
Assay [2] shares this target. This is another data set of the same source.

On to “V5-tagged SmVKR1 (wildtype venus kinase receptor 1 of S. mansoni)”, for which, in assay [1], the GVBD (%) of Xenopus oocytes without L-Arg; Smβ-Int1, SmILK and SmVKR1 co-expressed, no SmPINCH (Inj 10) was 0%; the GVBD (%) of Xenopus oocytes without L-Arg; Smβ-Int1, SmILK, SmPINCH and SmVKR1 co-expressed (Inj 11) was found to be 80%; the GVBD (%) of Xenopus oocytes without L-Arg; Smβ-Int1, SmILK, SmPINCH, SmNck2 and SmVKR1 co-expressed, with the ILK inhibitor QLT-0267 (1 μM) (Inj 13) came out at 0%; the GVBD (%) of Xenopus oocytes without L-Arg; Smβ-Int1, SmILK, SmPINCH, SmNck2ΔSH3 and SmVKR1 co-expressed (Inj 15) worked out at 10%. Also, in assay [1], the GVBD (%) of Xenopus oocytes without L-Arg; Smβ-Int1, SmILK, SmPINCHΔLIM4 in place of SmPINCH and SmVKR1 co-expressed (Inj 14) is 0%; the GVBD (%) of Xenopus oocytes without L-Arg; Smβ-Int1, SmILKΔAnk1 in place of SmILK, SmPINCH and SmVKR1 co-expressed (Inj 12) amounted to 0%; the GVBD (%) of Xenopus oocytes without L-Arg; Smβ-Int1, SmPINCH and SmVKR1 co-expressed, no SmILK (Inj 9) is 0%. In assay [2], this substance yielded a GVBD (%) of Xenopus oocytes without L-Arg; Smβ-Int1, SmILK, SmPINCH, SmNck2 and SmVKR1 co-expressed (Exp 1) of 90%; a GVBD (%) without L-Arg; as Exp 1 with SmILKΔAnk1 in place of SmILK (Exp 2) of 0%; a GVBD (%) without L-Arg; as Exp 1 with SmNck2ΔSH3 in place of SmNck2 (Exp 5) of 10%; a GVBD (%) without L-Arg; as Exp 1 with SmPINCHΔLIM1 in place of SmPINCH (Exp 4) of 0%. In addition, in assay [2], the GVBD (%) without L-Arg; as Exp 1 with SmPINCHΔLIM4 in place of SmPINCH (Exp 3) is 0% and the GVBD (%) without L-Arg; as Exp 1 with the ILK inhibitor QLT-0267 (1 μM) (Exp 7) is 0%.
